Source: patent US20070196354A1, “Method of treating diabetes by inhibiting degradation of at least one of crebl1, atf6, and hnf-4 alpha by htra” (priority 2003, published 2007)

What was measured:
ATF6 = target: T1, ATF6 (Homo sapiens, UniProt P18850); experiment: Intracellular protease assay, co-expression with ATF6 in HEK293T cells; assay type: cell-based; conditions: 48 hours
T1 construct: expressed in transfected cells; host or cells: HEK293T
T1 sequence (P18850 1-670): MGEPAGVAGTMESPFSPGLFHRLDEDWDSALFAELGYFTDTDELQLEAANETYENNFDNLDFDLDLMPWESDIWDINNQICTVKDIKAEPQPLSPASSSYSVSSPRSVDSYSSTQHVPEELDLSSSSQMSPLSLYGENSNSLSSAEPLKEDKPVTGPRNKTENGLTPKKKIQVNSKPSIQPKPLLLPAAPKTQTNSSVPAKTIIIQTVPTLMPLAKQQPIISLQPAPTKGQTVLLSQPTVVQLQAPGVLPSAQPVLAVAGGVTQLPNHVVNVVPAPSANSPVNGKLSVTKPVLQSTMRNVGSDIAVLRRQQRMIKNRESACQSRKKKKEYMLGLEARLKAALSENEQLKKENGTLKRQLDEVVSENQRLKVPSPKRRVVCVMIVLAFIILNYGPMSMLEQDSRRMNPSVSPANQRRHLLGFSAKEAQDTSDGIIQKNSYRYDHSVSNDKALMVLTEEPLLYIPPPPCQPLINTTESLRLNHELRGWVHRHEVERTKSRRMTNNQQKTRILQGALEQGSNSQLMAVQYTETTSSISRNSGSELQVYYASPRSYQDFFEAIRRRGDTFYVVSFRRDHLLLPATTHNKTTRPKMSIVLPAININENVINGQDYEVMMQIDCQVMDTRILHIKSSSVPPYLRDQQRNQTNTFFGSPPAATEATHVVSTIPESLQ
Experimental: (§1) HEK293T cells were cultured to 1.5×10^5 cells/10 cm Dish. Next day, the expression plasmid of CREBL1 or ATF6 was transfected into HEK293T cells together with the expression plasmid of various types of HtrA2 using FuGene 6 (Roche). Each of the expression plasmid of various HtrA2 at 1 μg/Dish was added in combination with CREBL1 expression plasmid or ATF6 expression plasmid at 1 μg/Dish. Forty eight hours later, the cells in which the various types of HtrA2 were co-expressed with CREBL1 or ATF6 were added with 200 μl of lysis buffer B and an equivalent volume of 2×SDS sample buffer (containing 0.1% β-mercaptoethanol), and then subjected to sonication followed by boiling to use as a test sample.
(§2) Expression of CREBL1 and ATF6 and the degradation of these proteins were detected by western blotting using 10 μl of the test sample thus obtained. Anti-c-Myc (9E10) antibody was used as a primary antibody for detection, and horseradish peroxidase (HRP) conjugated anti-mouse IgG antibody (Cell Signaling) was used as a secondary antibody. Detection was carried out using ECL Western Blotting Detection System.

CREBL1 = target: T2, CREBL1 (Homo sapiens, UniProt Q99941); experiment: Intracellular protease assay, co-expression with CREBL1 in HEK293T cells; assay type: cell-based; conditions: 48 hours
T2 construct: expressed in transfected cells; host or cells: HEK293T
T2 sequence (Q99941 1-703): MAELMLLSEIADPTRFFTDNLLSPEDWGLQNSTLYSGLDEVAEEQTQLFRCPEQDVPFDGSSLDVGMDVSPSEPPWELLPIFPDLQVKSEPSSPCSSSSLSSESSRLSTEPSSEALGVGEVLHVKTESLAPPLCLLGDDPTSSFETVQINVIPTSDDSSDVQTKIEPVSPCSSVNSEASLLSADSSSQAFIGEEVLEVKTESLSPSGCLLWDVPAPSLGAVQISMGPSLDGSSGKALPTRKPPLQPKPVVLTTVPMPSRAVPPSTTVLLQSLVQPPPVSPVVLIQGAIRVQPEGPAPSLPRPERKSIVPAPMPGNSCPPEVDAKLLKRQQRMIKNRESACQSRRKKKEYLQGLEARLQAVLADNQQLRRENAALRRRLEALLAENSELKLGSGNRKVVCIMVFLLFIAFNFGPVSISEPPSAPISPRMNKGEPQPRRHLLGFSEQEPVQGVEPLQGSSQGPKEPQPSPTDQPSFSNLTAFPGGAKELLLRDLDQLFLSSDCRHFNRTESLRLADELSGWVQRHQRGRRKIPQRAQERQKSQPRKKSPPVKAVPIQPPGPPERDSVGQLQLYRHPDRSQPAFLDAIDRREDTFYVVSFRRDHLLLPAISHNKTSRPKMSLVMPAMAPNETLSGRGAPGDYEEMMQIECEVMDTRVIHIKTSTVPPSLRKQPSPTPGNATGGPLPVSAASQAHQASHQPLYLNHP
Experimental: as §1, §2

HNF-4α = target: T3, HNF-4α (Homo sapiens, UniProt P41235); experiment: Intracellular protease assay, co-expression with HNF-4α in HEK293T cells; assay type: cell-based; conditions: 48 hours
T3 construct: expressed in transfected cells; host or cells: HEK293T
T3 sequence (P41235 10-474): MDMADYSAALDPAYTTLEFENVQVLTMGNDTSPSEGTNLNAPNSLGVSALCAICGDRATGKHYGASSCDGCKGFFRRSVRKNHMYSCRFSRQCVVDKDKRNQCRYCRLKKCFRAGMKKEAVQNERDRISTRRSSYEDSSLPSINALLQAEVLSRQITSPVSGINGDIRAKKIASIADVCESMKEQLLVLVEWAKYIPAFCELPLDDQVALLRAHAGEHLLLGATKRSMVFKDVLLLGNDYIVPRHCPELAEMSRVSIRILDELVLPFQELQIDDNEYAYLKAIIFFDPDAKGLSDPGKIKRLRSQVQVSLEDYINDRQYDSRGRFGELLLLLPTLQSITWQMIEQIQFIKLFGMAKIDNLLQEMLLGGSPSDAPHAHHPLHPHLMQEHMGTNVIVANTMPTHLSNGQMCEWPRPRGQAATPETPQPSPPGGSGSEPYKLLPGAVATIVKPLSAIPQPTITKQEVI
Experimental: as §1, with “cells/6” for “cells/10”, “HNF-4α” for “CREBL1 or ATF6”, “HNF-4α” for “CREBL1 expression plasmid or ATF6”
Expression of HNF-4α and the degradation of HNF-4α were detected by western blotting using 10 μl of the test sample thus obtained. Anti-FLAG antibody (Sigma) was used as a primary antibody for detection, and horseradish peroxidase (HRP) labeled anti-mouse IgG antibody (Cell Signaling) was used as a secondary antibody. Detection was carried out using ECL Western Blotting Detection System.

casein = experiment: Casein zymography and protease assay with casein sodium; assay type: biochemical; conditions: HtrA2 types expressed in a cultured cell
Experimental: Determination of the activity of mature HtrA2 and mature HtrA2 (S306A) was carried out with casein zymography and with a protease assay with casein sodium. Casein zymography was carried out according to the protocol (Invitrogen). More concretely, mature HtrA2 and mature HtrA2 (S306A) were mixed under non-reductive condition with equivalent volume of 2×SDS sample buffer, left to stand at room temperature for 10 min, followed by separation with 4-16% zymogram (Blue casein) gel (Zymogram Gel, Invitrogen). After completion of electrophoresis, they were renatured with 2.5% Triton X-100, and then subjected to a degradation reaction of casein in the developing buffer at 37= C. for overnight.
Meanwhile, a protease assay using casein sodium as an substrate was carried out in such that mature HtrA2 or mature HtrA2 (S306A) was mixed with casein sodium in a reaction buffer (150 mM NaCl, 50 mM Tris-HCl (pH 7.5)) so as to the concentration of the former might become 200 μg/ml and the concentration of the latter might become 400 μg/ml, and incubated at 37° C. for reactions. A portion of the reaction solution was sampled at three hours and overnight after initiation of the reaction, mixed with equivalent volume of 2×SDS sample buffer followed by boiling, and then subjected to SDS-PAGE. After that, the degradation of casein sodium was detected by Coomassie Brilliant Blue (CBB) staining.
The enzyme activity of the various types of HtrA2 each of which was expressed in a cultured cell was determined by the protease assay using casein sodium as a substrate (see Example 2).

B1: mature HtrA2 (S306A, GVPS): SEQ ID NO: 14; mature HtrA2 (S306A) with N-terminal alanine substituted with glycine (protein)
chain: MGVPSPPPASPRSQYNFIADVVEKTAPAVVYIEILDRHPFLGREVPISNGSGFVVAADGLIVTNAHVVADRRRVRVRLLSGDTYEAVVTAVDPVADIATLRIQTKEPLPTLPLGRSADVRQGEFVVAMGSPFALQNTITSGIVSSAQRPARDLGLPQTNVEYIQTDAAIDFGNAGGPLVNLDGEVIGVNTMKVTAGISFAIPSDRLREFLHRGEKKNSSSGISGSQRRYIGVMMLTLSPSILAELQLREPSFPDVQHGVLIHKVILGSPAHRAGLRPGDVILAIGEQMVQNAEDVYEAVRTQSQLAVQIRRGRETLTLYVTPEVTE
modifications: Polypeptide consisting of the same amino acid sequence of SEQ ID NO6 wherein the 2nd amino acid residue is substituted by Gly; mature HtrA2(S306A, GVPS)
notes: mature HtrA2 (S306A) with N-terminal alanine substituted with glycine
degradation of ATF6 in cells (band by western blotting) (ATF6): the reduction of the band of ATF6 was not observed | degradation of CREBL1 in cells (band by western blotting) (CREBL1): the reduction of the band of CREBL1 was not observed | degradation of HNF-4α in cells (band by western blotting) (HNF-4α): the reduction of the band of HNF-4α was not observed | protease activity using casein sodium as a substrate (casein): inactive type without exhibiting protease activity

B2: mature HtrA2 (S306A, ΔAVPS): SEQ ID NO: 12; mature HtrA2 (S306A) lacking the N-terminal four amino acid residues (AVPS) (protein)
chain: MPPPASPRSQYNFIADVVEKTAPAVVYIEILDRHPFLGREVPISNGSGFVVAADGLIVTNAHVVADRRRVRVRLLSGDTYEAVVTAVDPVADIATLRIQTKEPLPTLPLGRSADVRQGEFVVAMGSPFALQNTITSGIVSSAQRPARDLGLPQTNVEYIQTDAAIDFGNAGGPLVNLDGEVIGVNTMKVTAGISFAIPSDRLREFLHRGEKKNSSSGISGSQRRYIGVMMLTLSPSILAELQLREPSFPDVQHGVLIHKVILGSPAHRAGLRPGDVILAIGEQMVQNAEDVYEAVRTQSQLAVQIRRGRETLTLYVTPEVTE
modifications: Polypeptide consisting of the same amino acid sequence of SEQ ID NO6 wherein the amino acid residues from the 2nd to the 5th are deleted; mature HtrA2(S306A, delta AVPS)
degradation of ATF6 in cells (band by western blotting) (ATF6): the reduction of the band of ATF6 was not observed | degradation of CREBL1 in cells (band by western blotting) (CREBL1): the reduction of the band of CREBL1 was not observed | degradation of HNF-4α in cells (band by western blotting) (HNF-4α): the reduction of the band of HNF-4α was not observed | protease activity using casein sodium as a substrate (casein): inactive type without exhibiting protease activity
